Test [1] concerns the target GST‐LMO4 (UniProt P61968). The experiment in a line: ITC.
Test [2] addresses T1, MBP‐Jacob‐262‐532 (UniProt Q9EPI6 262-532).
T1 sequence (looked up): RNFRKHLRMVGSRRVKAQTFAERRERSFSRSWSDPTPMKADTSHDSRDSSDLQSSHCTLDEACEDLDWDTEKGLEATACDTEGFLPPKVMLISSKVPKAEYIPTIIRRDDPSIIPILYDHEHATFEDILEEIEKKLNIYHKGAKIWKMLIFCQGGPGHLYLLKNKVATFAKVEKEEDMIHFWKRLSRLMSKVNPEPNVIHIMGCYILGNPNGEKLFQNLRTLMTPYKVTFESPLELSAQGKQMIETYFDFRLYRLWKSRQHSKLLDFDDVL
Description: pull-down.

Sequence of Jacob (protein of the ITC experiment) (Q9EPI6 whole entry): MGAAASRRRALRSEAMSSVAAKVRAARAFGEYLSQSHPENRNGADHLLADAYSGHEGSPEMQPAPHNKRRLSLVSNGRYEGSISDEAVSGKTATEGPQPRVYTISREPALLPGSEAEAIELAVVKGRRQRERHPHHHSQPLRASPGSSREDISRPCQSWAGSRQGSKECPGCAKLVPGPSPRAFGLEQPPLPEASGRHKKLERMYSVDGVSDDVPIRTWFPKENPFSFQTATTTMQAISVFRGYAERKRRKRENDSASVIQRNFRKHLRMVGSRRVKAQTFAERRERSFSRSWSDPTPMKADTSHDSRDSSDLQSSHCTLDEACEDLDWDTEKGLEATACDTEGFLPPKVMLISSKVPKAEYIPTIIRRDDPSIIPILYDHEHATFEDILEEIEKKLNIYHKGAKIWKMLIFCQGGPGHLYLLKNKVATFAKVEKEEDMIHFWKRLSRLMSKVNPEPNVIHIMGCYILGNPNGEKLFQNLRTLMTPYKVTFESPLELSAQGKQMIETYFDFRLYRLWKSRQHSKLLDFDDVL

In general, Kd refers to a measure of binding affinity in units of concentration. Regarding “Jacob (protein of the ITC experiment) (from UniProt Q9EPI6 1-532) (natural protein)”, the Kd in test [1] turned out to be 370 nM. Take REAARECRRKKKEYVKCLENRVAVLENQNKTLIEELKALKDLYCHKSD (domain or fragment, UniProt P15337-1 294-341, looked up) [bZIP domain of CREB (His‐SUMO‐CREB‐294‐341)]: the binding result in test [2] is on record as “binds”.

Values taken from PMC9929644 (The EMBO Journal, 2023).
